B1: EMD (parent)
chain: YQSKGYNDDYYEESYFTTRTYGEP

Variants of: B1
Experiment: protein stability index of a GFP-peptide fusion (GPS, HEK-293T) (PSI 1-6); higher = more stable
Details: c terminus: a fixed tail appended
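Also: lentivirally expressed fusions sorted by FACS into six bins by GFP to DsRed ratio, PSI derived from sequencing read proportions per bin multiplied by bin number.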

| Variant | protein stability index |
| --- | --- |
| YQSKGYTDDYYEESYFTTRTYGEP [N7T] | 2.14 |
| YQSKGYQDDYYEESYFTTRTYGEP [N7Q] | 2.14 |
| YQSKGYRDDYYEESYFTTRTYGEP [N7R] | 1.75 |
| YQSKGYHDDYYEESYFTTRTYGEP [N7H] | 2.18 |
| YQSKGYKDDYYEESYFTTRTYGEP [N7K] | 1.94 |
| YQSKGYADDYYEESYFTTRTYGEP [N7A] | 2.25 |
| YQSKGYSDDYYEESYFTTRTYGEP [N7S] | 2.47 |
| YQSKGYIDDYYEESYFTTRTYGEP [N7I] | 1.76 |
| YQSKGYLDDYYEESYFTTRTYGEP [N7L] | 1.71 |
| YQSKGYEDDYYEESYFTTRTYGEP [N7E] | 2.87 |
| YQSKGYPDDYYEESYFTTRTYGEP [N7P] | 2.17 |
| YQSKGYWDDYYEESYFTTRTYGEP [N7W] | 3.23 |
| YQSKGYVDDYYEESYFTTRTYGEP [N7V] | 2.13 |
| YQSKGYFDDYYEESYFTTRTYGEP [N7F] | 3.55 |
| YQSKGYMDDYYEESYFTTRTYGEP [N7M] | 1.67 |
| YQSKGYGDDYYEESYFTTRTYGEP [N7G] | 2.13 |
| YQSKGYCDDYYEESYFTTRTYGEP [N7C] | 2.05 |
| YQSKGYYDDYYEESYFTTRTYGEP [N7Y] | 1.88 |
| YQSKGYDDDYYEESYFTTRTYGEP [N7D] | 2.62 |
| YQSKGYNDCYYEESYFTTRTYGEP [D9C] | 1.18 |
| YQSKGYNDLYYEESYFTTRTYGEP [D9L] | 2.01 |
| YQSKGYNDAYYEESYFTTRTYGEP [D9A] | 1.44 |
| YQSKGYNDVYYEESYFTTRTYGEP [D9V] | 1.85 |
| YQSKGYNDTYYEESYFTTRTYGEP [D9T] | 1.79 |

| Variant | protein stability index |
| --- | --- |
| YQSKGYNDKYYEESYFTTRTYGEP [D9K] | 1.52 |
| YQSKGYNDGYYEESYFTTRTYGEP [D9G] | 2.7 |
| YQSKGYNDQYYEESYFTTRTYGEP [D9Q] | 1.93 |
| YQSKGYNDMYYEESYFTTRTYGEP [D9M] | 1.96 |
| YQSKGYNDSYYEESYFTTRTYGEP [D9S] | 1.57 |
| YQSKGYNDRYYEESYFTTRTYGEP [D9R] | 1.96 |
| YQSKGYNDEYYEESYFTTRTYGEP [D9E] | 2.06 |
| YQSKGYNDNYYEESYFTTRTYGEP [D9N] | 1.74 |
| YQSKGYNDIYYEESYFTTRTYGEP [D9I] | 1.57 |
| YQSKGYNDHYYEESYFTTRTYGEP [D9H] | 1.89 |
| YQSKGYNDFYYEESYFTTRTYGEP [D9F] | 2.44 |
| YQSKGYNDWYYEESYFTTRTYGEP [D9W] | 2.68 |
| YQSKGYNDPYYEESYFTTRTYGEP [D9P] | 1.71 |
| YQSKGYNDYYYEESYFTTRTYGEP [D9Y] | 1.79 |
| YQSKVYNDDYYEESYFTTRTYGEP [G5V] | 2.06 |
| YQSKCYNDDYYEESYFTTRTYGEP [G5C] | 1.95 |
| YQSKYYNDDYYEESYFTTRTYGEP [G5Y] | 1.89 |
| YQSKTYNDDYYEESYFTTRTYGEP [G5T] | 2.52 |
| YQSKKYNDDYYEESYFTTRTYGEP [G5K] | 2.22 |
| YQSKSYNDDYYEESYFTTRTYGEP [G5S] | 2.9 |
| YQSKWYNDDYYEESYFTTRTYGEP [G5W] | 2.92 |
| YQSKFYNDDYYEESYFTTRTYGEP [G5F] | 2.33 |
| YQSKPYNDDYYEESYFTTRTYGEP [G5P] | 2.1 |
| YQSKAYNDDYYEESYFTTRTYGEP [G5A] | 1.93 |

| Variant | protein stability index |
| --- | --- |
| YQSKLYNDDYYEESYFTTRTYGEP [G5L] | 1.82 |
| YQSKMYNDDYYEESYFTTRTYGEP [G5M] | 1.74 |
| YQSKQYNDDYYEESYFTTRTYGEP [G5Q] | 2.48 |
| YQSKDYNDDYYEESYFTTRTYGEP [G5D] | 3.08 |
| YQSKEYNDDYYEESYFTTRTYGEP [G5E] | 3.1 |
| YQSKIYNDDYYEESYFTTRTYGEP [G5I] | 2.18 |
| YQSKRYNDDYYEESYFTTRTYGEP [G5R] | 1.97 |
| YQSKHYNDDYYEESYFTTRTYGEP [G5H] | 1.89 |
| YQSKNYNDDYYEESYFTTRTYGEP [G5N] | 2.33 |
| YQSKGYNDDYHEESYFTTRTYGEP [Y11H] | 2.6 |
| YQSKGYNDDYTEESYFTTRTYGEP [Y11T] | 2.94 |
| YQSKGYNDDYAEESYFTTRTYGEP [Y11A] | 2.97 |
| YQSKGYNDDYDEESYFTTRTYGEP [Y11D] | 3.29 |
| YQSKGYNDDYNEESYFTTRTYGEP [Y11N] | 2.98 |
| YQSKGYNDDYKEESYFTTRTYGEP [Y11K] | 2.19 |
| YQSKGYNDDYMEESYFTTRTYGEP [Y11M] | 2.51 |
| YQSKGYNDDYWEESYFTTRTYGEP [Y11W] | 1.87 |
| YQSKGYNDDYFEESYFTTRTYGEP [Y11F] | 1.68 |
| YQSKGYNDDYCEESYFTTRTYGEP [Y11C] | 2.36 |
| YQSKGYNDDYPEESYFTTRTYGEP [Y11P] | 2.19 |
| YQSKGYNDDYIEESYFTTRTYGEP [Y11I] | 2.19 |
| YQSKGYNDDYVEESYFTTRTYGEP [Y11V] | 2.34 |
| YQSKGYNDDYGEESYFTTRTYGEP [Y11G] | 2.84 |
| YQSKGYNDDYEEESYFTTRTYGEP [Y11E] | 3.16 |

| Variant | protein stability index |
| --- | --- |
| YQSKGYNDDYREESYFTTRTYGEP [Y11R] | 2.66 |
| YQSKGYNDDYSEESYFTTRTYGEP [Y11S] | 2.8 |
| YQSKGYNDDYLEESYFTTRTYGEP [Y11L] | 2.38 |
| YQSKGYNDDYQEESYFTTRTYGEP [Y11Q] | 2.8 |
| YMSKGYNDDYYEESYFTTRTYGEP [Q2M] | 2.36 |
| YPSKGYNDDYYEESYFTTRTYGEP [Q2P] | 2.29 |
| YLSKGYNDDYYEESYFTTRTYGEP [Q2L] | 2.5 |
| YWSKGYNDDYYEESYFTTRTYGEP [Q2W] | 1.59 |
| YNSKGYNDDYYEESYFTTRTYGEP [Q2N] | 3.11 |
| YRSKGYNDDYYEESYFTTRTYGEP [Q2R] | 2.54 |
| YISKGYNDDYYEESYFTTRTYGEP [Q2I] | 1.93 |
| YSSKGYNDDYYEESYFTTRTYGEP [Q2S] | 2.65 |
| YKSKGYNDDYYEESYFTTRTYGEP [Q2K] | 3.13 |
| YYSKGYNDDYYEESYFTTRTYGEP [Q2Y] | 2.01 |
| YVSKGYNDDYYEESYFTTRTYGEP [Q2V] | 1.9 |
| YTSKGYNDDYYEESYFTTRTYGEP [Q2T] | 1.99 |
| YQSKGYNDDYYDESYFTTRTYGEP [E12D] | 2.57 |
| YQSKGYNDDYYFESYFTTRTYGEP [E12F] | 2.11 |
| YQSKGYNDDYYGESYFTTRTYGEP [E12G] | 1.84 |
| YQSKGYNDDYYCESYFTTRTYGEP [E12C] | 1.75 |
| YQSKGYNDDYYAESYFTTRTYGEP [E12A] | 2.19 |
| YQSKGANDDYYEESYFTTRTYGEP [Y6A] | 3.26 |

From the supplement of paper PMC10567573
